Measurements published in article PMC7782096, “BAP1 suppresses prostate cancer progression by deubiquitinating and stabilizing PTEN” (Molecular Oncology, 2020).

Biological target: T1, His-tagged BAP1 protein (UniProt Q92560 1-729)
T1 construct: BAP1, full length, inserted into pET-28a; also called His-BAP1; source: E. coli expressing system, purified
T1 sequence (looked up): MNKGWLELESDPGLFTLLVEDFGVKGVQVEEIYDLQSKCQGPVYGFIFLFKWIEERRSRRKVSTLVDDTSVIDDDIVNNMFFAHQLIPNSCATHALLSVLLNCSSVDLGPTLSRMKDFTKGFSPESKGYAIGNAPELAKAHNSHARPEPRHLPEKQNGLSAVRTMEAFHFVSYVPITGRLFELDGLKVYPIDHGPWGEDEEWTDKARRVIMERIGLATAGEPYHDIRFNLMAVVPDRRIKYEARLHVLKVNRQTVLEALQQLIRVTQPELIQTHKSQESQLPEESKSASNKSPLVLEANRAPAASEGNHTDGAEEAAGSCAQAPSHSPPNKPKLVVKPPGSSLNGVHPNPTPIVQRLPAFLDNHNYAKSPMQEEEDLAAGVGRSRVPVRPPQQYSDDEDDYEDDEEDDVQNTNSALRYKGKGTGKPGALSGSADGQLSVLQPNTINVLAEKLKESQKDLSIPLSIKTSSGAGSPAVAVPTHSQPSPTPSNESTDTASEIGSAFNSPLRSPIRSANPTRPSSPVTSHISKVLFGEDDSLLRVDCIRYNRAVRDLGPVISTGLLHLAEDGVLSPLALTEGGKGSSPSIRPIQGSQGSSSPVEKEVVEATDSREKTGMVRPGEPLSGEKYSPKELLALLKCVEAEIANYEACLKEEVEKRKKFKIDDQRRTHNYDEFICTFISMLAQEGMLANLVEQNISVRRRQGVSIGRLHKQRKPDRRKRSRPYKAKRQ
Test: pull-down; purified GST-PTEN on GST beads incubated with recombinant His-BAP1 purified from E. coli, 4 °C; western blotting
Details: both partners purified

binding result: binds
B1: GST-tagged PTEN recombinant protein (natural protein)
chain: not shown
notes: PTEN; also called GST-PTEN; source: bacterially expressed (E. coli), purified
